Assay [1] concerns the target soluble HCV E2 truncated at amino acid 661 (sE2661), His-tagged (Hepatitis C virus (isolate not stated)). Briefly: SPR (BIAcore), sE2. (SPR reads the build-up and loss of mass on a sensor chip optically.)
The target is the same in assay [2]. Briefly: SPR (BIAcore A100), antibody captured on anti-Fc chip, sE2 injected 1.56-50 nM, 1:1 Langmuir fit.

Consider 2 substances from patent US20120027722A1.

pKd: −log10 of the molar value.

As to AP33 Fab, the pKd – broadly, −log10 of the Kd, conventionally taken in molar units – in assay [1] is 7.30.

The substance AP33 antibody (as used in Example 2) had a pKd in assay [2] of 8.10 to 8.30.
